Assay results taken from the supplement of paper PMC9170038.

Test system: MS2 coat protein
Assay: apparent KD of MS2 coat protein; designed switch direction (-1 OFF switch, 1 ON switch): -1; higher = weaker reporter binding
In short: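 Designed RNA switches were transcribed on Illumina chips by stalled E. coli RNA polymerase and titrated with SNAP-549-labelled MS2 coat protein from 0.7 or 1.5 nM, doubling to 3 µM. Step length ran from 0.8–1.5 h at the lowest concentration to 10–20 min at the highest. The apparent KD is the median over clusters for each design, from curve-fitted normalised cluster fluorescence.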

[1] = Eterna round: R95, input ligand: microRNA oligo, concentration not stated
[2] = Eterna round: R95, input ligand: FMN 200 uM
[3] = Eterna round: R95, input ligand: none
[4] = input ligand: microRNA oligo, concentration not stated

Row | Sequence | apparent KD of MS2 coat protein (input ligand: FMN 200 uM) | apparent KD of MS2 coat protein (input ligand: none) | apparent KD of MS2 coat protein [1] | apparent KD of MS2 coat protein [2] | apparent KD of MS2 coat protein [3] | apparent KD of MS2 coat protein [4]
1 | UACACUGCAUGAGGAUCAAACAUGAGGAUCACCCAUGUGUAGCAAGCUUUUUGCUCGUCUUAUAAAUAUGUAGUGUA [Electric Eye 10 - Jieux - Sensor, turn-off variant 1] (Eterna round: R97, puzzle: Sensor, turn-off variant 1) | 0.0134 µM | 0.0129 µM | – | – | – | –
2 | AGUCUGCGAGGAUAUACAUGAGGAUCACCCAUGUGCGAAGAACUAGUGAGGUCGAUUGGUAGAAGGCGCGGACA [Mat - Exclusion 3 - Mod of JL D88] (puzzle: Exclusion 3) | – | – | 0.241 µM | – | – | –
3 | CACGAGCUAGGAUAUACAUGAGGAUCACCCAUGUAAGUCAUGCGGUCACAUCUGACAGGUAGAAGGAGCGCGUC [Teaertete] (puzzle: Exclusion 3) | – | – | 0.0375 µM | – | – | –
4 | AAGAAACAUGAGGAUCACCCAUGUGAGGAUAUAGAAAAGAAAGAAAGAAAGAAAGAAACUAGAAGGCACAAAGA [It's All Mine] (puzzle: Exclusion 1) | – | – | 0.0392 µM | 0.0246 µM | 0.0261 µM | –
5 | UAAUAGAUGGUUAGGAUAUGCUGGCCUAGGCCGCGGCAGAAGGAACAUGAGGAUCACCCAUGUAGUAGGAUCCA [Eternabot (L2) Solution 15] (Eterna round: R97, puzzle: Brourd's mod of Exclusion 4) | 0.204 µM | 0.0986 µM | – | – | – | –
6 | AGUACUAACACGAAAGUGUUAGUACAAUAAGCUUGUGUUACAUGAGGAUCACCCAUGUCCUCAUAAGCUCGUCUUAU [JL-sv3-2.14 mat747 mod] (puzzle: Sensor v3, turn-off variant 2) | – | – | 0.0485 µM | 0.1 µM | 0.0981 µM | –
7 | GAUAGAGAGCAGGAUAUCUUGGGUAAGUAUCAUAGAGAAGGGCUCACAUGAGGAUCACCCAUGUGGUCCAAGAU [Dibira] (puzzle: Exclusion 6) | – | – | 0.013 µM | 0.0428 µM | 0.0126 µM | –
8 | GGAAAAAAAGUGAGGAUAUCCGGAGGGAAACCUCCGGAGAAGGCACAUGAGGAUCACCCAUGUAAAAAAAAAAA [AK-MS2ROC-r4-Bmoexclusion4-1] (Eterna round: R97, puzzle: Brourd's mod of Exclusion 4) | 0.0599 µM | 0.0305 µM | – | – | – | –
9 | GAGCUAUGAGGAUAUGCAUAUAUGCGGUUUCGUGUGGUACUACAUGAGGAUCACCCAUGUAGAAGGCGUGGCAG [Mat - Exclusion 2 - Mod of JL - D79] (puzzle: Exclusion 2) | – | – | 0.0132 µM | – | – | –
10 | UAGUUACAUGAGGAUCACCCAUGUGAGGAUAUGAGUCAGUCACGGUGACGUGGCUGACUCAGAAGGCACAAUGG [Mat - Exclusion 1 - JL Mod - D45] (Eterna round: R97, puzzle: Exclusion 1) | 0.0774 µM | 0.256 µM | – | – | – | –
11 | CAUUUCUGUCGUUGAUCCAACAUGAGGAUCACCCAUGUCUCUUUAGCUUUUUGCUCGUCUUAUCCUCCUUUGUUCAC [JR_STOV1_Sub099] (Eterna round: R97, puzzle: Sensor, turn-off variant 1) | 0.499 µM | 0.835 µM | – | – | – | –
12 | CAGUCGAUAAGAUCAAUUAAUUAACAUGAGGAUCACCCAUGUGAGGAUAUCAGCUCGUUUAGAGCUGAGAAGGCACAACGACUG [ExNG3/17-A2] (Eterna round: R96, puzzle: Exclusion NG 3) | 0.305 µM | 0.0379 µM | – | – | – | 0.0324 µM
13 | CGCUGGACAGGAUAUGUUCUUGGGCACUUGAGGAUCACCCAAGUCAUCAAAAACUCAGGCACAGAAGGGUUUAUGG [salish99_ex5_r4_019] (Eterna round: R97, puzzle: Exclusion 5) | 0.076 µM | 0.176 µM | – | – | – | –
14 | ACUCGACAUGAGGAUCACCCAUGUGAGGAUAUGGCCUGUAUGGCGUGAGCUGGAUCAAUCAGAAGGCGCGUGGG [salish99_ex1_r4_052] (Eterna round: R97, puzzle: Exclusion 1) | 0.0804 µM | 0.056 µM | – | – | – | –
15 | CAUGAUCUUCGGAUCAUGUACAUGAGGAUCACCCAUGUUACGAGUUGAUUUUCAUACAAGCUUUUUGCUCGUCUUAU [Sensor v3 - Turn-off variant 1 - 27] (puzzle: Sensor v3, turn-off variant 1) | – | – | 0.33 µM | 0.226 µM | 0.24 µM | –
16 | AGUAACAGAGGAUAUACUGUUUUAUGUAUUUAUUAUUUUAAACAUGAGGAUCACCCAUGUAGAAGGCUGAAUAA [JMF 81] (puzzle: Exclusion 2) | – | – | 0.0175 µM | – | – | –
17 | AGUAACUAUCACGAAAGUGAUAGUUACACAAGCAGUGGAACAUGAGGAUCACCCAUGUCCUCAUUUGCUCGUCUUAU [Sensor 3 - 27] (puzzle: Sensor v3, turn-off variant 2) | – | – | 0.0196 µM | 0.0355 µM | 0.0422 µM | –

Row | Sequence | apparent KD of MS2 coat protein (input ligand: FMN 200 uM) | apparent KD of MS2 coat protein (input ligand: none) | apparent KD of MS2 coat protein [1] | apparent KD of MS2 coat protein [2] | apparent KD of MS2 coat protein [3] | apparent KD of MS2 coat protein [4]
18 | ACAGUGUUAGGAUAUGUGAGAGUUAGUCUCGACUAGUCGAAGCAGAAGGAACAUGAGGAUCACCCAUGUAGAUC [EX4 #78] (Eterna round: R97, puzzle: Exclusion 4) | 0.114 µM | 0.0467 µM | – | – | – | –
19 | GAAAACGCAGAGGAUAUUUCAGAUCAAAGCUGCAAAGAAGGCUGCACAUGAGGAUCACCCAUGUGGUCUUUAAA [Quesina] (Eterna round: R96, puzzle: Exclusion 6) | – | – | – | – | – | 0.016 µM
20 | ACAUGAGGAUCACCCAUGUCGAGUACAUGAGGAUCACCCAUGUAGGAUAUGGUUCGCUUUGCGUGCUAGAAGGAUAUGUGUUGA [salish99_ExNG3_r04_510] (Eterna round: R96, puzzle: Exclusion NG 3) | 0.321 µM | 0.226 µM | – | – | – | 0.148 µM
21 | AGAUGUCCGCAGGAUAUGCGGGCGAGGCCCUAAGCAGAAGGGCGGACAUGAGGAUCACCCAUGUGAGUAAAAGA [EX6 A.23] (Eterna round: R97, puzzle: Exclusion 6) | 0.0942 µM | 0.0252 µM | – | – | – | –
22 | AGCUGUGGCCAAGGAUAUCCAGCCUUAAAUACCGACGUAUAGUCGGACAUGAGGAUCACCCAUGUGGAGAAGGUGGUCUCAGCA [Eli eng2 - 040] (Eterna round: R96, puzzle: Exclusion NG 2) | 0.109 µM | 0.0568 µM | – | – | – | 0.045 µM
23 | CUUCAAUCACCAGAGCUCACACUUAUACCUGCUCUGGUGACAUGAGGAUCACCCAUGUUUUUUGCCCGUCUUAUCUU [Sensor v3, turn-off variant 2 (MOD of Leso v.3)] (puzzle: Sensor v3, turn-off variant 2) | – | – | 0.033 µM | 0.0866 µM | 0.0974 µM | –
24 | UGUUGUCGCGCAGGAUAUGAGGAUCACCCAUAUAAAGGAUAUGAAAAGAAGGUUCUGAGGAUCACCCAGAAGGGCGGGACAACU [pwkr exNG2 2xF5 2xFMN.18] (Eterna round: R96, puzzle: Exclusion NG 2) | 0.347 µM | 0.0626 µM | – | – | – | 0.049 µM
25 | AAAUAAUAGAUAAAAUAAUACAUGAGGAUCACCCAUGUGGGAUGUUGAGGGUGAUACAGGCUUUUUGCUCGUCUUAU (puzzle: Sensor v3, turn-off variant 1) | – | – | 0.155 µM | 0.434 µM | 0.207 µM | –
26 | AGUACUAACACGAAAGUGUUAGUACAAUAAGCUUGUGAAACAUGAGGAUCACCCAUGUCCUCUUAAGCUCGUCUUAU [salish99_TOv2_r3_047] (puzzle: Sensor v3, turn-off variant 2) | – | – | 0.329 µM | 0.116 µM | 0.124 µM | –
27 | UGUGCGUAUGUGAGGAUAUGCUGGUCCUUGGAUCAGCAGAAGGCACAUGAGGAUCACCCAUGUGGUGUCGUACG [salish99_Bmod_Ex4_008] (puzzle: Brourd's mod of Exclusion 4) | – | – | 0.0969 µM | – | – | –
28 | GAAGAAGAGAGAAUAGAAAACAUGAGGAUCACCCAUGUGAGAAGAUGAGGGUGUAGCAGGCUUUUUGCUCGUCUUAU (puzzle: Sensor v3, turn-off variant 1) | – | – | 0.119 µM | 0.0325 µM | 0.0312 µM | –
29 | UCCGAACAUGAGGAUCACCCAUGUCAGGAUAUUCGGUUACGUGACAAAUAGUACUAACGAAGAAGGGACAUGCU [Eternabot (L2) Solution 26] (Eterna round: R97, puzzle: Exclusion 1) | 0.0791 µM | 0.0277 µM | – | – | – | –
30 | CUAAAUCAUGUAGGAUAUGCAUAGCAAAGCUAUGCAGAAGGACAUGAGGAUCACCCAUGUCAUUCCGUCUGGAGACAGACGGGA [Mat - Exclusion NG 1 - Mod of JL - D56] (Eterna round: R96, puzzle: Exclusion NG 1) | 0.142 µM | 0.0325 µM | – | – | – | 0.025 µM
31 | AUUAUGUUAGGAUAUGCUUAUGGUGGAUAGUCCAAUGUGGUGCAGAAGGGACAUGAGGAUCACCCAUGUGCUGA [EX4 #30] (Eterna round: R97, puzzle: Exclusion 4) | 0.0923 µM | 0.0575 µM | – | – | – | –
32 | CCCGGGUUAGGAUAUUCCUCGUGCAGCUGACAGCCACGGGAGAAGAAGGGACAUGAGGAUCACCCAUGUGAAUA [Eternabot (L2) Solution 47] (Eterna round: R97, puzzle: Exclusion 4) | 0.042 µM | 0.0329 µM | – | – | – | –
33 | GCGCGAAGGUAGGAUAUCGAGGGAUCUUCCCGCCGAGAAGGACCCACAUGAGGAUCACCCAUGUGGUGAUCCUG [eternacac ex6r4 sub9] (Eterna round: R97, puzzle: Exclusion 6) | 0.0271 µM | 0.0494 µM | – | – | – | –
34 | CUUCGUGUCAAGGAUAUACAGCAACUAUCCGGAGUAGAAGGUGGCACUUGAGGAUCACCCAAGUGCGUGGGUGU [Uszaqubi] (Eterna round: R97, puzzle: Exclusion 6) | 0.0335 µM | 0.0257 µM | – | – | – | –
